Results as given in US7750123B2.

Substrate: S protein of GD03T on pseudotyped HIV virus (SARS-CoV (GD03T0013 isolate))

B1: 80R IgG1 (antibody, V domains shown)
VH: EVQLVQSGGGVVQPGKSLRLSCAASGFAFSSYAMHWVRQAPGKGLEWVAVISYDGSNKYYADSVKGRFTISRDNSKNTLYLQMNSLRAEDTAVYYCARDRSYYLDYWGQGTLVTVSS
VL: ETTLTQSPATLSLSPGERATLSCRASQSVRSNLAWYQQKPGQAPRPLIYDASTRATGIPDRFSGSGSGTDFTLTISRLEPEDFAVYYCQQRSNWPPTFGQGTKVEVK
For B1, the inhibition of pseudoviral infection of ACE2-expressing 293T cells (luciferase) was over 50 µg/mL.
